# Reference: publication PMC9824680
# B1: β-Glucosidase from Thermotoga maritima (bgl) (Thermotoga maritima MSB8) (protein)
# chain: MNVKKFPEGFLWGVATASYQIEGSPLADGAGMSIWHTFSHTPGNVKNGDTGDVACDHYNRWKEDIEIIEKLGVKAYRFSISWPRILPEGTGRVNQKGLDFYNRIIDTLLEKGITPFVTIYHWDLPFALQLKGGWANREIADWFAEYSRVLFENFGDRVKNWITLNEPWVVAIVGHLYGVHAPGMRDIYVAFRAVHNLLRAHARAVKVFRETVKDGKIGIVFNNGYFEPASEKEEDIRAVRFMHQFNNYPLFLNPIYRGDYPELVLEFAREYLPENYKDDMSEIQEKIDFVGLNYYSGHLVKFDPDAPAKVSFVERDLPKTAMGWEIVPEGIYWILKKVKEEYNPPEVYITENGAAFDDVVSEDGRVHDQNRIDYLKAHIGQAWKAIQEGVPLKGYFVWSLLDNFEWAEGYSKRFGIVYVDYSTQKRIVKDSGYWYSNVVKNNGLED
# Substrate: O=[N+]([O-])c1ccc(O[C@@H]2O[C@H](CO)[C@@H](O)[C@H](O)[C@H]2O)cc1
# Assay: purified protein
# Details: free enzyme, 100 mM citrate phosphate pH 6.5, 50 °C, pNPG 0.05–25 mM
protein,measurement,value
B1,Km,0.22 ± 0.08 mM
same,Vmax,7.27 µM/min
